Data taken from patent publication US20020045591A1, “Methods and therapeutic compositions for treating cancer” (priority 1998, published 2002).
Values belong to the molecule of their own block, whether it stands above or below them.

Legend:
[1] = system: LEF-1-driven transcription; assay: LEF-1 consensus (TOPFLASH) transactivation in 293 cells; assay type: cell-based, human; details: FIG. 18B
Experimental: (§1) Cell Culture and Transfections: Canine kidney epithelial cells MDCK, human fibrosarcoma HT1080, 293-T human embryonic kidney cells, Balb/C mouse 3T3 and human colon carcinoma SW480 cell lines were cultured in Dulbecco's modified Eagle's medium supplemented with 10% calf serum (Gibco, Grand Island, N.Y.) at 37° C. in the presence of 7% CO2. The human renal carcinoma cell line KTCTL60 was grown in RPMI medium and 10% calf serum. Cells were transiently transfected with the cDNA constructs described below, using Ca^2+-phosphate or lipofectamine (Gibco) and the expression of the transgene was assessed between 24 and 48 hours after transfection. In some experiments, the expression of the stably transfected NH2 terminus-deleted β-catenin (Δ57) was enhanced in HT1080 cells by overnight treatment with 2 mM sodium butyrate.
(§2) A plasmid encoding β-galactosidase (0.5 μg) was cotransfected to enable normalization for transfection efficiency. The relevant plasmid expressing catenin constructs (4.5 μg) was co-transfected with the reporter, or an empty expression vector was included. After 24-48 hours expression of the reporter (luciferase) and the control (β-galactosidase) genes were determined using enzyme assay systems from Promega (Madison, Wis.).

[2] = system: β-catenin-mediated transactivation; assay: TOPFLASH/FOPFLASH luciferase transactivation in CHO cells; assay type: cell-based; details: TOPFLASH with LEF-1 and β-catenin vs TOPFLASH and LEF-1 without β-catenin
Experimental: (§3) Cell culture and transfections: CHO and SW480 human colon carcinoma cells were cultured in Dulbecco's modified Eagle's medium containing 10% fetal calf serum in an 8% CO2 incubator at 37° C. Transfections were performed using Lipofectamine (Gibco, BRL, USA) according to the manufacturer's instructions. Stably transfected CHO clones were generated by co-transfection with a plasmid encoding the puromycin resistance gene. Two days after transfection, cells were replated in the presence of 10 μg/ml puromycin (Sigma, Holon, Israel). Stable clones were isolated 2 weeks later and tested for the expression of the transgene by Western blot analysis.
(§4) Transactivation assays: CHO cells were transfected with TOPFLASH or FOPFLASH vectors (van de Wetering et al., 1997, ibid) and with pCDNA3 coding for β-galactosidase to normalize for transfection efficiency. The transfection mixture also contained either β-catenin, LEF-1 or cadherin derivatives in different combinations, as indicated. SW480 cells were transfected with TOPFLASH and cadherin derivatives. […] The reactions were stopped with 1 M Na2CO3 and the absorbance at 420 nm was determined. […] The luciferase reaction was monitored by a TD-20e luminometer (Turner, USA) and normalized for the β-galactosidase activity. […]

β-catenin [3] = target: T1, β-catenin (Cricetulus griseus, UniProt G3H996); assay: β-catenin level in CHO cells by Western blot; assay type: cell-based; details: stably transfected CHO cells, FIG. 2A
T1 construct: resulting from the stabilization of the endogenous β-catenin by the transfected cadherin derivatives; endogenous in cells; host or cells: CHO cells, stably or transiently transfected with cadherin derivatives only
T1 sequence (G3H996 1-781): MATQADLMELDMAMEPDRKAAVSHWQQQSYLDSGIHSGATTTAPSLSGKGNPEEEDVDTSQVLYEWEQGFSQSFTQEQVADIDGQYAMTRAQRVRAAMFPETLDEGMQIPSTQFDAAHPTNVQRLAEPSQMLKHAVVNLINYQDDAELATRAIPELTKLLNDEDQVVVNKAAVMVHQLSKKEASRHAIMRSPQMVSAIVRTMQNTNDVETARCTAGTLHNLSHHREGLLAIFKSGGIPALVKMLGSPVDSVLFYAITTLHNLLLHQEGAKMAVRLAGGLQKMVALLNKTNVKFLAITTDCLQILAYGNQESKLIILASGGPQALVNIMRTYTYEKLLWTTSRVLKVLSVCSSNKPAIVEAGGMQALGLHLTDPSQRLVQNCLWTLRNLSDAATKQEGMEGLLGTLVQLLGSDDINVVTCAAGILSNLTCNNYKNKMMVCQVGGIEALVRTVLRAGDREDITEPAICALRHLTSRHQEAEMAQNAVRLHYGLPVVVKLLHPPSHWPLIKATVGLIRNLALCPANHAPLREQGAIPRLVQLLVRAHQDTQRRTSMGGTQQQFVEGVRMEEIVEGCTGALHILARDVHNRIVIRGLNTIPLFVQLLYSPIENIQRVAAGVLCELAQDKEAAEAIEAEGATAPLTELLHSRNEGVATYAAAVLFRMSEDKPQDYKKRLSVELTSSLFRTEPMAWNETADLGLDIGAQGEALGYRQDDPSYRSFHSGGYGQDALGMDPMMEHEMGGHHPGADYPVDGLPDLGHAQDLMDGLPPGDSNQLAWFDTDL
Experimental: as §3
Immunoblotting and immunoprecipitation: The following antibodies were used: polyclonal pan-cadherin or monoclonal anti cadherin (CH-19) and polyclonal anti β-catenin antibodies were from Sigma (Holon, Israel). Monoclonal anti β-catenin, 5H10 (from M. Wheelock), anti IL2Rα (from UBI), anti flag (M2, from IBI), anti HA (clone 12CA5, from Boehringer Mannheim, Germany), anti GFP (polyclonal, from Clontech, Palo Alto, Calif.), anti LEF-1 (polyclonal, kindly provided by Dr. R. Grosschedl). […]

SW480 cells = assay: Immunofluorescence localization in SW480 cells (Example 1); assay type: cell-based, human; details: transfected SW480 cells, FIG. 6B
Excerpt: (§5) Immunofluorescence microscopy: Cells cultured on glass coverslips were fixed with 3% paraformaldehyde in phosphate-buffered saline (PBS) and permeabilized with 0.5% Triton X-100. CHO cells were immunofluorescently labeled as described (Levenberg S. et al. (1998) Long-range and selective autoregulation of cell-cell and cell-matrix adhesions by cadherin or integrin ligands. J. Cell Sci. 111:347-357). Nuclei were visualized using DAPI and the fluorescence was examined using a Zeiss Axiophot microscope and a x100/1.3 Planapochromat objective.

CHO cells = assay: Immunofluorescence localization in CHO cells; assay type: cell-based; details: stably transfected CHO cells, FIG. 4
Excerpt: as §5

[4] = system: β-catenin-mediated transactivation; assay: TOPFLASH luciferase transactivation in SW480 cells (Example 1); assay type: cell-based, human; details: SW480 cells transfected with TOPFLASH and N-cadherin derivative, FIG. 6A
Experimental: as §3, §4

β-catenin [5] = target: T1, β-catenin; assay: Co-immunoprecipitation of cadherin derivatives with β-catenin in CHO cells; assay type: binding; details: stably transfected CHO cells, FIG. 2B
Excerpt: Immunoblotting and immunoprecipitation: The following antibodies were used: polyclonal pan-cadherin or monoclonal anti cadherin (CH-19) and polyclonal anti β-catenin antibodies were from Sigma (Holon, Israel). Monoclonal anti β-catenin, 5H10 (from M. Wheelock), anti IL2Rα (from UBI), anti flag (M2, from IBI), anti HA (clone 12CA5, from Boehringer Mannheim, Germany), anti GFP (polyclonal, from Clontech, Palo Alto, Calif.), anti LEF-1 (polyclonal, kindly provided by Dr. R. Grosschedl). Secondary antibodies for Western blotting were goat anti rabbit or anti mouse conjugated to HRP (Amersham, Buckinghampshire, UK), and for immunofluorescence analysis the secondary antibodies were FITC-goat anti mouse (Cappel, USA) or rhodamine-anti rabbit antibodies (from Jackson Immuno-Research, West Grove, Pa.). Cells were harvested in Laemmli's sample buffer and equal amounts of total cell protein from the different clones, or from transient transfections, were separated by SDS-PAGE, electrotransferred to nitrocellulose and incubated with the different antibodies. For immunoprecipitation, cells were harvested in IP buffer (20 mM Tris pH 8.0, 1% Triton X-100, 140 mM NaCl, 10% glycerol, 1 mM EGTA, 1.5 mM MgCl2, 1 mM DTT, 1 mM sodium vanadate, and 50 μg/ml PMSF). […]

[6] = system: β-catenin-dependent transactivation; assay: LEF-1 consensus luciferase transactivation in SW480 cells (Example 2); assay type: cell-based, human; details: co-transfection, FIG. 19A
Experimental: as §1, §2

B1: β-catenin: transfected β-catenin cDNA construct (protein, UniProt P35222 2-781, looked up)
Catenin beta-1: ATQADLMELDMAMEPDRKAAVSHWQQQSYLDSGIHSGATTTAPSLSGKGNPEEEDVDTSQVLYEWEQGFSQSFTQEQVADIDGQYAMTRAQRVRAAMFPETLDEGMQIPSTQFDAAHPTNVQRLAEPSQMLKHAVVNLINYQDDAELATRAIPELTKLLNDEDQVVVNKAAVMVHQLSKKEASRHAIMRSPQMVSAIVRTMQNTNDVETARCTAGTLHNLSHHREGLLAIFKSGGIPALVKMLGSPVDSVLFYAITTLHNLLLHQEGAKMAVRLAGGLQKMVALLNKTNVKFLAITTDCLQILAYGNQESKLIILASGGPQALVNIMRTYTYEKLLWTTSRVLKVLSVCSSNKPAIVEAGGMQALGLHLTDPSQRLVQNCLWTLRNLSDAATKQEGMEGLLGTLVQLLGSDDINVVTCAAGILSNLTCNNYKNKMMVCQVGGIEALVRTVLRAGDREDITEPAICALRHLTSRHQEAEMAQNAVRLHYGLPVVVKLLHPPSHWPLIKATVGLIRNLALCPANHAPLREQGAIPRLVQLLVRAHQDTQRRTSMGGTQQQFVEGVRMEEIVEGCTGALHILARDVHNRIVIRGLNTIPLFVQLLYSPIENIQRVAAGVLCELAQDKEAAEAIEAEGATAPLTELLHSRNEGVATYAAAVLFRMSEDKPQDYKKRLSVELTSSLFRTEPMAWNETADLGLDIGAQGEPLGYRQDDPSYRSFHSGGYGQDALGMDPMMEHEMGGHHPGADYPVDGLPDLGHAQDLMDGLPPGDSNQLAWFDTDL
activation of LEF-1-driven transcription [1]: potent transcriptional co-activator
increase in luciferase activity [2]: about 5 fold

effect on β-catenin levels (β-catenin [3]): increase in β-catenin levels
interaction with β-catenin by co-immunoprecipitation (β-catenin [5]): direct interaction
B2: N-cadherin: Full length chicken N-cadherin cloned into the pECE expression vector (protein)
chain: DWVIPPINLPENSRGPFPQELVRIRSDRDKSLSLRYSVTGPGADQPPTGIFIINPISGQLSVTKPLDREQIASFHLRAHAVDVNGNQVENPIDIVINVIDMNDNRPEFLHQVWNGTVPEGSKPGTYVMTVTAIDADDPNAQNGMLRYRILSQAPSSPSPNMFTINNETGDIITVAAGLDREKVQQYTLIIQATDMEGNPTYGLSNTATAVITVTDVNDNPPEFTAMTFYGEVPENRVDVIVANLTVTDKDQPHTPAWNARYQMTGGDPTGQFTILTDPNSNDGLVTVVKPIDFETNRMFVLTVAAENQVPLAKGIQHPPQSTATVSITVIDVNESPYFVPNPKLVRQEEGLLAGSMLTTFTARDPDRYMQQTSLRYSKLSDPANWLKIDPVNGQITTTAVLDRESIYVQNNMYNATFLASDNGIPPMSGTGTLQIYLLDINDNAPQVNPKEATTCETLQPNAINITAVDPDIDPNAGPFAFELPDSPPSIKRNWTIVRISGDHAQLSLRIRFLEAGIYDVPIVITDSGNPHASSTSVLKVKVCQCDINGDCTDVDRIVGAGLGTGAIIAILLCIIILLILVLMFVVWMKRRDKERQAKQLLIDPEDDVRDNILKYDEEGGGEEDQDYDLSQLQQPDTVEPDAIKPVGIRRLDERPIHAEPQYPVRSAAPHPGDIGDFINEGLKAADNDPTAPPYDSLLVFDYEGSGSTAGSLSSLNSSSSGGEQDYDYLNDWGPRFKKLADMYGGGDD
subcellular localization of β-catenin (SW480 cells): binding of the endogenous β-catenin to the plasma membrane
subcellular localization of cadherin derivative and β-catenin (CHO cells): mainly associated with cell-cell junctions
inhibition of TOPFLASH reporter (luciferase) activity [4]: about 70%
effect on constitutive LEF-1 driven transcription [6]: effectively blocked
